We go through 27 molecules from PMC10786891, “Massively parallel profiling of RNA-targeting CRISPR-Cas13d”.

First the molecules themselves.
B1: target 1 insA 3' of 10,insA 3' of 6 (mixed)
RNA 1: CACCCGUGCAAAAAUGCAGGGGUCUAAAACUGAGCGGAUAACCUCUCUAUGG
RNA 2: GGGAAUGGAUCCACAUCUACGAAUUCGUACCAUAGAGAGGUUAAUCCAGCUCACCGAGAUCGGAAGAGCACACGU
B2: target 1 A1U,C4U (mixed)
RNA 1: CACCCGUGCAAAAAUGCAGGGGUCUAAAACUGAGCGGAUAACCUCUCUAUGG
RNA 2: GGGAAUGGAUCCACAUCUACGAAUUCGUACCAUAGAGAGGUUAUCCGUUCUCCGAGAUCGGAAGAGCACACGU
B3: target 1 U10G,U11G (mixed)
RNA 1: CACCCGUGCAAAAAUGCAGGGGUCUAAAACUGAGCGGAUAACCUCUCUAUGG
RNA 2: GGGAAUGGAUCCACAUCUACGAAUUCGUACCAUAGAGAGGGGAUCCGCUCACCGAGAUCGGAAGAGCACACGU
B4: target 1 A1U,C6G (mixed)
RNA 1: CACCCGUGCAAAAAUGCAGGGGUCUAAAACUGAGCGGAUAACCUCUCUAUGG
RNA 2: GGGAAUGGAUCCACAUCUACGAAUUCGUACCAUAGAGAGGUUAUCGGCUCUCCGAGAUCGGAAGAGCACACGU
B5: target 3 insG 3' of 2,insC 3' of 2 (mixed)
RNA 1: CACCCGUGCAAAAUUGCAGGGGUCUAAAACGACCUGAAUAUUUCAGAUCAAA
RNA 2: GGGAAUGGAUCCACAUCUACGAAUUCGUUUUUGAUCUGAAAUAUUCAGGUGCCUGCAGAUCGGAAGAGCACACGU
B6: target 3 U2A,U8C (mixed)
RNA 1: CACCCGUGCAAAAUUGCAGGGGUCUAAAACGACCUGAAUAUUUCAGAUCAAA
RNA 2: GGGAAUGGAUCCACAUCUACGAAUUCGUUUUUGAUCUGAAAUACUCAGGACUGCAGAUCGGAAGAGCACACGU
B7: target 3 C1U,A12C (mixed)
RNA 1: CACCCGUGCAAAAUUGCAGGGGUCUAAAACGACCUGAAUAUUUCAGAUCAAA
RNA 2: GGGAAUGGAUCCACAUCUACGAAUUCGUUUUUGAUCUGACAUAUUCAGGUUUGCAGAUCGGAAGAGCACACGU
B8: target 3 insA 3' of 2 (mixed)
RNA 1: CACCCGUGCAAAAUUGCAGGGGUCUAAAACGACCUGAAUAUUUCAGAUCAAA
RNA 2: GGGAAUGGAUCCACAUCUACGAAUUCGUUUUUGAUCUGAAAUAUUCAGGUACUGCAGAUCGGAAGAGCACACGU
B9: target 3 insA 3' of 8,insC 3' of 8 (mixed)
RNA 1: CACCCGUGCAAAAUUGCAGGGGUCUAAAACGACCUGAAUAUUUCAGAUCAAA
RNA 2: GGGAAUGGAUCCACAUCUACGAAUUCGUUUUUGAUCUGAAAUAUACUCAGGUCUGCAGAUCGGAAGAGCACACGU
B10: target 3 insU 3' of 16,insU 3' of 1 (mixed)
RNA 1: CACCCGUGCAAAAUUGCAGGGGUCUAAAACGACCUGAAUAUUUCAGAUCAAA
RNA 2: GGGAAUGGAUCCACAUCUACGAAUUCGUUUUUGAUCUUGAAAUAUUCAGGUCUUGCAGAUCGGAAGAGCACACGU
B11: target 3 U8C,A9G (mixed)
RNA 1: CACCCGUGCAAAAUUGCAGGGGUCUAAAACGACCUGAAUAUUUCAGAUCAAA
RNA 2: GGGAAUGGAUCCACAUCUACGAAUUCGUUUUUGAUCUGAAAUGCUCAGGUCUGCAGAUCGGAAGAGCACACGU
B12: target 3 C1G,A12G (mixed)
RNA 1: CACCCGUGCAAAAUUGCAGGGGUCUAAAACGACCUGAAUAUUUCAGAUCAAA
RNA 2: GGGAAUGGAUCCACAUCUACGAAUUCGUUUUUGAUCUGAGAUAUUCAGGUGUGCAGAUCGGAAGAGCACACGU
B13: target 3 insC 3' of 4,insG 3' of 2 (mixed)
RNA 1: CACCCGUGCAAAAUUGCAGGGGUCUAAAACGACCUGAAUAUUUCAGAUCAAA
RNA 2: GGGAAUGGAUCCACAUCUACGAAUUCGUUUUUGAUCUGAAAUAUUCAGCGUGCUGCAGAUCGGAAGAGCACACGU
B14: target 3 insC 3' of 18,insA 3' of 17 (mixed)
RNA 1: CACCCGUGCAAAAUUGCAGGGGUCUAAAACGACCUGAAUAUUUCAGAUCAAA
RNA 2: GGGAAUGGAUCCACAUCUACGAAUUCGUUUUUGACUACUGAAAUAUUCAGGUCUGCAGAUCGGAAGAGCACACGU
B15: target 3 insU 3' of 9,insC 3' of 8 (mixed)
RNA 1: CACCCGUGCAAAAUUGCAGGGGUCUAAAACGACCUGAAUAUUUCAGAUCAAA
RNA 2: GGGAAUGGAUCCACAUCUACGAAUUCGUUUUUGAUCUGAAAUAUUCUCAGGUCUGCAGAUCGGAAGAGCACACGU
B16: target 3 insU 3' of 13,insA 3' of 2 (mixed)
RNA 1: CACCCGUGCAAAAUUGCAGGGGUCUAAAACGACCUGAAUAUUUCAGAUCAAA
RNA 2: GGGAAUGGAUCCACAUCUACGAAUUCGUUUUUGAUCUGAUAAUAUUCAGGUACUGCAGAUCGGAAGAGCACACGU
B17: target 3 G4A,U8C (mixed)
RNA 1: CACCCGUGCAAAAUUGCAGGGGUCUAAAACGACCUGAAUAUUUCAGAUCAAA
RNA 2: GGGAAUGGAUCCACAUCUACGAAUUCGUUUUUGAUCUGAAAUACUCAAGUCUGCAGAUCGGAAGAGCACACGU
B18: target 3 insG 3' of 9,insC 3' of 8 (mixed)
RNA 1: CACCCGUGCAAAAUUGCAGGGGUCUAAAACGACCUGAAUAUUUCAGAUCAAA
RNA 2: GGGAAUGGAUCCACAUCUACGAAUUCGUUUUUGAUCUGAAAUAGUCUCAGGUCUGCAGAUCGGAAGAGCACACGU
B19: target 3 insU 3' of 16,insU 3' of 3 (mixed)
RNA 1: CACCCGUGCAAAAUUGCAGGGGUCUAAAACGACCUGAAUAUUUCAGAUCAAA
RNA 2: GGGAAUGGAUCCACAUCUACGAAUUCGUUUUUGAUCUUGAAAUAUUCAGGUUCUGCAGAUCGGAAGAGCACACGU
B20: target 3 del6,del9 (mixed)
RNA 1: CACCCGUGCAAAAUUGCAGGGGUCUAAAACGACCUGAAUAUUUCAGAUCAAA
RNA 2: GGGAAUGGAUCCACAUCUACGAAUUCGUUUUUGAUCUGAAAUUUAGGUCUGCAGAUCGGAAGAGCACACGU
B21: target 3 G4A,A11G (mixed)
RNA 1: CACCCGUGCAAAAUUGCAGGGGUCUAAAACGACCUGAAUAUUUCAGAUCAAA
RNA 2: GGGAAUGGAUCCACAUCUACGAAUUCGUUUUUGAUCUGAAGUAUUCAAGUCUGCAGAUCGGAAGAGCACACGU
B22: target 3 del4,del5 (mixed)
RNA 1: CACCCGUGCAAAAUUGCAGGGGUCUAAAACGACCUGAAUAUUUCAGAUCAAA
RNA 2: GGGAAUGGAUCCACAUCUACGAAUUCGUUUUUGAUCUGAAAUAUUCGUCUGCAGAUCGGAAGAGCACACGU
B23: target 3 insC 3' of 22,insA 3' of 21 (mixed)
RNA 1: CACCCGUGCAAAAUUGCAGGGGUCUAAAACGACCUGAAUAUUUCAGAUCAAA
RNA 2: GGGAAUGGAUCCACAUCUACGAAUUCGUUUCUAUGAUCUGAAAUAUUCAGGUCUGCAGAUCGGAAGAGCACACGU
B24: target 3 G4A,U8G (mixed)
RNA 1: CACCCGUGCAAAAUUGCAGGGGUCUAAAACGACCUGAAUAUUUCAGAUCAAA
RNA 2: GGGAAUGGAUCCACAUCUACGAAUUCGUUUUUGAUCUGAAAUAGUCAAGUCUGCAGAUCGGAAGAGCACACGU
B25: target 3 A5U,C6U (mixed)
RNA 1: CACCCGUGCAAAAUUGCAGGGGUCUAAAACGACCUGAAUAUUUCAGAUCAAA
RNA 2: GGGAAUGGAUCCACAUCUACGAAUUCGUUUUUGAUCUGAAAUAUUUUGGUCUGCAGAUCGGAAGAGCACACGU
B26: target 3 U2A,A18G (mixed)
RNA 1: CACCCGUGCAAAAUUGCAGGGGUCUAAAACGACCUGAAUAUUUCAGAUCAAA
RNA 2: GGGAAUGGAUCCACAUCUACGAAUUCGUUUUUGGUCUGAAAUAUUCAGGACUGCAGAUCGGAAGAGCACACGU
B27: target 3 insC 3' of 22,insU 3' of 6 (mixed)
RNA 1: CACCCGUGCAAAAUUGCAGGGGUCUAAAACGACCUGAAUAUUUCAGAUCAAA
RNA 2: GGGAAUGGAUCCACAUCUACGAAUUCGUUUCUUGAUCUGAAAUAUUCUAGGUCUGCAGAUCGGAAGAGCACACGU

The target in this series is T1, EsCas13d, nuclease-dead (Eubacterium siraeum, UniProt B0MS50, R295A;H300A;R849A;H854A).
T1 sequence: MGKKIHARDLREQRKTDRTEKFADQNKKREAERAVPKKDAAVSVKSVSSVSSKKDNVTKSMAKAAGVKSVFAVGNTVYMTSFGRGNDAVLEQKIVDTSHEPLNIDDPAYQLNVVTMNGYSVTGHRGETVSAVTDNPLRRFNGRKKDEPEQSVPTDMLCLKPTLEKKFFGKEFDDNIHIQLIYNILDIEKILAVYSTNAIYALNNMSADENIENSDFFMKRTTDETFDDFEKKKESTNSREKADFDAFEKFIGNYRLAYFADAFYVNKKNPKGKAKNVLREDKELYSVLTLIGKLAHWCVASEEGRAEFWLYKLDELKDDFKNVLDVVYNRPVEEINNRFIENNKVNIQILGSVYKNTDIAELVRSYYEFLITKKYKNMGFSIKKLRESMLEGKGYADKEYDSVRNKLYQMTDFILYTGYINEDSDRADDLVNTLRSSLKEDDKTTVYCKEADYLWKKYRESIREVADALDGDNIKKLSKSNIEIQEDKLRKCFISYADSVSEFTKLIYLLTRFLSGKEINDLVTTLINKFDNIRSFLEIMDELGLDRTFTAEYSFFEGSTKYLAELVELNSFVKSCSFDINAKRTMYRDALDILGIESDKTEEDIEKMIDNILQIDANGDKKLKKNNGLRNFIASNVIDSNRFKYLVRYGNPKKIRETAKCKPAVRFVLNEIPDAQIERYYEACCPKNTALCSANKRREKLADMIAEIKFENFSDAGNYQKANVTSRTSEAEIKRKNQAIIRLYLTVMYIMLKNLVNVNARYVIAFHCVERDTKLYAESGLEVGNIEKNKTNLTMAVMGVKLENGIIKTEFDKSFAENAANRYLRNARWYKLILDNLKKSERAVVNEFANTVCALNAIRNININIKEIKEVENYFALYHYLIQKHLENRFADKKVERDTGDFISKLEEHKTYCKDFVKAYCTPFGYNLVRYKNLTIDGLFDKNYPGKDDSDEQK
Put plainly: crRNA (strand 1, pre-loaded); Mg2+; 40 mM Tris-HCl pH 7.5, 150 mM NaCl, 6 mM MgCl2, 1 mM DTT, 0.1% Tween-20, 0.2 mg/ml BSA; 25 C; 10 min per concentration, then washed. The conditions noted are these: tags: His6-TwinStrep-SUMO cleaved; N-terminal SNAP kept (SNAP-Surface 488); label: 3' end held by stalled T7 RNA polymerase.
Usually Kd stands for the equilibrium constant for the complex coming apart. A lower Kd goes with higher affinity. Regarding B1, the Kd was found to be 11.1 ± 0.7 nM.

Turning to B2, the Kd amounted to 13 ± 1.7 nM.

Take B3: the affinity, expressed as Kd, was 32.7 ± 2.9 nM. This Kd lies about 2.5-fold higher than the previous one.

Turning to B4, the dissociation constant Kd is 12.1 ± 0.9 nM.

Consider B5, for which the dissociation constant Kd stood at 68.5 ± 10.5 nM.

B6 yielded a Kd of 44.5 ± 6 nM.

In turn, B7 registered a Kd of 86.5 ± 17 nM.

B8: the dissociation constant (Kd) turned out to be 30.2 ± 2.55 nM. This Kd is about 2.9-fold lower than that of the molecule before.

Consider B9, for which the Kd was determined as 63 ± 10 nM.

In turn, B10 yielded a dissociation constant Kd of 39.5 ± 6.5 nM.

B11 returned a Kd of 77 ± 15.5 nM.

Take B12: the Kd was 50 ± 9 nM. Compared with the last molecule, the Kd is about 1.5-fold lower.

B13 registered a dissociation constant Kd of 50.5 ± 9.5 nM.

Take B14: the dissociation constant (Kd) was 34.5 ± 11 nM.

B15: the Kd worked out at 81.5 ± 13 nM.

The molecule B16 yielded a dissociation constant Kd of 74 ± 17.5 nM.

On to B17, for which binding was put at a Kd of 52.8 ± 5.6 nM.

For the molecule B18, the Kd is 90 ± 16.5 nM.

On to B19, for which the dissociation constant (Kd) was 29 ± 5 nM. Against the preceding molecule, the Kd is about 3.1-fold lower.

B20: the affinity, expressed as Kd, was 120 ± 24 nM.

B21 registered a Kd of 36 ± 5 nM.

For B22, the Kd is 24.6 ± 2.15 nM.

As to B23, the Kd was determined as 43 ± 5 nM. This Kd lies about 1.7-fold higher than the previous one.

As for B24, the Kd turned out to be 77.5 ± 21 nM.

The molecule B25 had a Kd of 48 ± 6 nM.

Turning to B26, the dissociation constant Kd came to 55.5 ± 7.5 nM.

As to B27, the Kd was 29.6 ± 2.7 nM.
